Reference: IntAct's records for PubMed 26751641

B1: Chromodomain-helicase-DNA-binding protein 1 (Homo sapiens), O14646 (parent)
chain: MNGHSDEESVRNSSGESSQSDDDSGSASGSGSGSSSGSSSDGSSSQSGSSDSDSGSESGSQSESESDTSRENKVQAKPPKVDGAEFWKSSPSILAVQRSAILKKQQQQQQQQQHQASSNSGSEEDSSSSEDSDDSSSEVKRKKHKDEDWQMSGSGSPSQSGSDSESEEEREKSSCDETESDYEPKNKVKSRKPQNRSKSKNGKKILGQKKRQIDSSEEDDDEEDYDNDKRSSRRQATVNVSYKEDEEMKTDSDDLLEVCGEDVPQPEEEEFETIERFMDCRIGRKGATGATTTIYAVEADGDPNAGFEKNKEPGEIQYLIKWKGWSHIHNTWETEETLKQQNVRGMKKLDNYKKKDQETKRWLKNASPEDVEYYNCQQELTDDLHKQYQIVERIIAHSNQKSAAGYPDYYCKWQGLPYSECSWEDGALISKKFQACIDEYFSRNQSKTTPFKDCKVLKQRPRFVALKKQPSYIGGHEGLELRDYQLNGLNWLAHSWCKGNSCILADEMGLGKTIQTISFLNYLFHEHQLYGPFLLVVPLSTLTSWQREIQTWASQMNAVVYLGDINSRNMIRTHEWTHHQTKRLKFNILLTTYEILLKDKAFLGGLNWAFIGVDEAHRLKNDDSLLYKTLIDFKSNHRLLITGTPLQNSLKELWSLLHFIMPEKFSSWEDFEEEHGKGREYGYASLHKELEPFLLRRVKKDVEKSLPAKVEQILRMEMSALQKQYYKWILTRNYKALSKGSKGSTSGFLNIMMELKKCCNHCYLIKPPDNNEFYNKQEALQHLIRSSGKLILLDKLLIRLRERGNRVLIFSQMVRMLDILAEYLKYRQFPFQRLDGSIKGELRKQALDHFNAEGSEDFCFLLSTRAGGLGINLASADTVVIFDSDWNPQNDLQAQARAHRIGQKKQVNIYRLVTKGSVEEDILERAKKKMVLDHLVIQRMDTTGKTVLHTGSAPSSSTPFNKEELSAILKFGAEELFKEPEGEEQEPQEMDIDEILKRAETHENEPGPLTVGDELLSQFKVANFSNMDEDDIELEPERNSKNWEEIIPEDQRRRLEEEERQKELEEIYMLPRMRNCAKQISFNGSEGRRSRSRRYSGSDSDSISEGKRPKKRGRPRTIPRENIKGFSDAEIRRFIKSYKKFGGPLERLDAIARDAELVDKSETDLRRLGELVHNGCIKALKDSSSGTERTGGRLGKVKGPTFRISGVQVNAKLVISHEEELIPLHKSIPSDPEERKQYTIPCHTKAAHFDIDWGKEDDSNLLIGIYEYGYGSWEMIKMDPDLSLTHKILPDDPDKKPQAKQLQTRADYLIKLLSRDLAKKEALSGAGSSKRRKARAKKNKAMKSIKVKEEIKSDSSPLPSEKSDEDDDKLSESKSDGRERSKKSSVSDAPVHITASGEPVPISEESEELDQKTFSICKERMRPVKAALKQLDRPEKGLSEREQLEHTRQCLIKIGDHITECLKEYTNPEQIKQWRKNLWIFVSKFTEFDARKLHKLYKHAIKKRQESQQNSDQNSNLNPHVIRNPDVERLKENTNHDDSSRDSYSSDRHLTQYHDHHKDRHQGDSYKKSDSRKRPYSSFSNGKDHRDWDHYKQDSRYYSDREKHRKLDDHRSRDHRSNLEGSLKDRSHSDHRSHSDHRLHSDHRSSSEYTHHKSSRDYRYHSDWQMDHRASSSGPRSPLDQRSPYGSRSPFEHSVEHKSTPEHTWSSRKT

Variants of: B1
Details: with KDM1A

effect of a mutation on the interaction | Variant
disrupting interaction strength | D425A
